According to patent US20240218048:

Assays:
[1] = test system: factor VIII expressed by F8-BDD (normal unmodified B-domain-deleted F8)
[2] = test system: factor VIII expressed by F8-BDD-299
[3] = test system: factor VIII expressed by F8-BDD-N8

## Thrombin (FIIa)
[1]
  activity of factor VIII after thrombin was added (substrate luminescence assay, every two minutes): the activity of factor VIII expressed by F8-BDD and F8-BDD-N8 is slightly increased
[2]
  activity of factor VIII after thrombin was added (substrate luminescence assay, every two minutes): From the second minute, the activity of factor VIII expressed by F8-BDD-299 is significantly increased
[3]
  activity of factor VIII after thrombin was added (substrate luminescence assay, every two minutes): the activity of factor VIII expressed by F8-BDD and F8-BDD-N8 is slightly increased
